The target of this data set is TNF-alpha (mouse) (Mus musculus, UniProt P06804 80-235). Nature of the data set: nitrocellulose filter binding with qPCR.
Sequence of TNF-alpha (mouse) (P06804 80-235): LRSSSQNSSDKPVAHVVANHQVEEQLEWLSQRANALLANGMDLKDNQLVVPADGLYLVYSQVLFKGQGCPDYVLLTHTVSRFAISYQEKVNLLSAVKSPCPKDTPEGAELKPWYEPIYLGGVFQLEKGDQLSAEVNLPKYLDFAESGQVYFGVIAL

B1: aptTNF-alpha (ssDNA)
DNA: GCGCCACTACAGGGGAGCTGCCATTCGAATAGGTGGGCCGC
As for B1, the binding result was “binds”.

The values are drawn from publication PMC6485186.
